Assay results reported in the nanobody polyreactivity screen of Harvey et al. (2022).

Assay: yeast display, Sf9 membrane polyspecificity reagent, FACS + sequencing; frameworks hold sequencing errors
In short: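 Galactose induction of a Saccharomyces cerevisiae BJ5465 synthetic nanobody display library ran 36–48 hours. The cells were then stained for 1 hour at 4 °C with 10% biotinylated, detergent-solubilized Sf9 membrane reagent, pulled down on streptavidin microbeads and FACS-sorted into low and high (top ~1%) gates on expression and reagent-binding fluorescence. Labels for polyreactivity follow the gate of origin.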

Row | Sequence | polyreactivity (PSR sort gate)
1 | QVQLVESGGGLVQAGGSLRLSCAASGFTFSGYDMGWYRPAPGKERELVAGISSGGVSTTYADSVKGRFTISRDNAKNTVYLQMNSLKPEDTAVYYCNAEWTSFDWGQGTQVTVSS | low polyreactivity
2 | QVQLVESGGGLVQAGASLRLSCAASGGIFYVYDMGWYRQAPGKERELVAVITFTGGSTYYADSVKGRYTISRDNAKNSVYFQKNRLKPEDTAVYYCAADAYQSAYSGEYDVYTEYDYWGQGTQVTVSS | low polyreactivity
3 | QDQLVESGGGLVQAGCSLLLSCAASGRIFAKNAMVCYRQAPGKERELVATSSWSGSSTRYADSVKGRFTISRDYAKNSVYLQMNSLKPEDTAVYYCAARPTPRRTPYTATYDYWGQGTQVTVSS | high polyreactivity
4 | QVQLVESGGGLVQAGGSLRLSCAASGFTFRRNAMRWYRQAPGKEWELVAAINFRDGSTYYADSLKGRFTISRDNAMIHVYLQMHSLKPEDSAVYYRAAVYYVRDRYDYWGQGTQETVSS | high polyreactivity
5 | QVQLVESGGGLVQAGGSLRLSCAASGRTFKWNPMGWYRQAPGKERELVAAITRSDGRTFYADSVKGRFTISRDNAKNTVYLQMNSLKPEDSAVYYCNALGYRNSVIYSGFDYWGQGTQVTVSS | low polyreactivity
6 | QVQLVESGGGLVQAGGSLRLSCAASGFTFYKNTMGWYRQAPGKERELVAAISSSGSSTYYADSVKGRFTISRDNAKNTVYLQMNSLKPEDTAVYYCAAVYRSWTSYNGRNYWGQGTQVTVSS | high polyreactivity
7 | QDQLVESGGGLVQAGGSLRLSCAPSGSIFYTNAMGWYRQAPRKERHLVAAISWGGGSTYYADSVKGRFTISRDNAKNTVYLQMNSLKAEDTAVYYCAARYYVYQQGFRSHVTKHYDYWGQGTQVTVSS | low polyreactivity
8 | QVQLVESGGGLVQAGGSLRLSCAASGSTFVSYAMGWYRQAPGKERELVAAITWRGDSTYYADSVKGRFTISRDNAKNTVYLQMNSLKPEDTAVYYCAADGRSWRYYSPYYYWGQGTQVTVSS | low polyreactivity
9 | QVQLVESGGGLVQAGGSLRLSCAASGRTFYNAMGWYIQAPGKERELVAAITTGGGTKYADSVKGRFTISRDNAKNTVYLQMHSLQPEDTAVYYCNTDAWYHFYHGAHKFDYWGQGTQVTVSS | low polyreactivity
10 | QVQLVESGGGLVQAGGSLRLSCAASGGIFVLYAMGWYRQAPGKERELVAAIRYGGSSTYYADSVKGRFTISRDYAKNTVYLQMNSLKPEDTAVYYCAAEPYSWDTWVDYDYWGQGTQVTVSS | low polyreactivity
11 | QVQLVESGGGLVQAGGSLRLSCAASGRTFWSNAMGWYRQAPGKERELVAAISTGAGSTYYADSVKGRFTISRDNAKNTVYLQMNSLKPEDTAVYYCAAVYNGALYNYYYWGEGTQVTVSS | high polyreactivity
12 | QVQLVESGGGLVQAGGSLRLSCAASGRTIPFYAMGWYRQAHGKERELVDAIDSGGNTYADSVKGRFTISRDNAKNTVYLQMISLKPEDTAVYYCAVDGGEFSSYGYWGQGTQVTVSS | low polyreactivity
13 | QVQLVESGGGLVQAGGSLRLSCAASGSTFRYYAMGWYRQAPGKERELVAAISSAGTTYYADSVKGRFTISRDNAKNTVYLQMNSLKPEDTAVYYCTARFVYHSSFAGFDYWGQGTQVTVSS | low polyreactivity
14 | QVQLVESGGGLVQAGGSLRLSSAASGSIFRVNAMGWYRQAPGKERELVAAISTSGGNTYYADSVKGRFTISRDNAKNTVYLQMNSLKPEDTAVYYCNAPWSSFNGFTGRYDYWGQGTQVTVSS | low polyreactivity
15 | QVQHVESGGRLVQAVGSLRLSCAASGFTFTRHAMGWYRQAPGKERDLVSRISSRGGSTYYADSVKGRFTISRDNAKNTVYLQMNSLKPEDTAVFYCAAPVRKSSYTRYDSWGQGTQVTVSS | high polyreactivity
16 | QVQLVESGGGLVQAGGSLRLSCAASGRIFGYYVMGWYRQAPGKERELVATISSGGSTYYADSVKGRFTISRDNAKNTVYLQMNSLKPEDTAVYYCNTDRYHRVDFEYWGQGTQVTVSS | high polyreactivity
17 | QVQLVESGGGLVQAGGSLRLSCAASGFIFPVYAMGWYRQAPGKERELVAAIRRGGSTNYADSVKGRFTISRDNAKNTVYLQMNSLKPEDTAVYYCAVEYQSPDDYWGQGTQVTVSS | low polyreactivity
